Test results: ChEMBL document CHEMBL1212722, “Designer enzymes for glycosphingolipid synthesis by directed evolution” (Nat Chem Biol, 2009)

What was measured:
[1] = substrate: CCCCCCCCCCCCC/C=C/[C@@H](O)[C@@H](N)CO; assay: (§1) Activity of Rhodococcus sp. M777 Endoglycoceramidase 2 R177H mutant
[2] = substrate: CC(=O)N[C@H]1[C@H](O[C@@H]2[C@H](O[C@]3(C(=O)O)C[C@H](O)[C@@H](NC(C)=O)[C@H]([C@@H](O)[C@@H](O)CO)O3)[C@@H](O)[C@H](O[C@H]3[C@H](O)[C@@H](O)[C@@H](F)O[C@@H]3CO)O[C@@H]2CO)O[C@H](CO)[C@H](O)[C@@H]1O[C@@H]1O[C@H](CO)[C@H](O)[C@H](O)[C@H]1O; assay: as §1
[3] = substrate: CCCCCCCCCCCCC/C=C/[C@@H](O)[C@@H](N)CO; assay: (§2) Ratio of Kcat to Km of Activity of Rhodococcus sp. M777 Endoglycoceramidase 2 R177H mutant
[4] = substrate: CC(=O)N[C@H]1[C@H](O[C@@H]2[C@H](O[C@]3(C(=O)O)C[C@H](O)[C@@H](NC(C)=O)[C@H]([C@@H](O)[C@@H](O)CO)O3)[C@@H](O)[C@H](O[C@H]3[C@H](O)[C@@H](O)[C@@H](F)O[C@@H]3CO)O[C@@H]2CO)O[C@H](CO)[C@H](O)[C@@H]1O[C@@H]1O[C@H](CO)[C@H](O)[C@H](O)[C@H]1O; assay: as §2
[5] = substrate: CCCCCCCCCCCCC/C=C/[C@@H](O)[C@@H](N)CO; assay: (§3) Activity of Rhodococcus sp. M777 Endoglycoceramidase 2 A81E mutant
[6] = substrate: CC(=O)N[C@H]1[C@H](O[C@@H]2[C@H](O[C@]3(C(=O)O)C[C@H](O)[C@@H](NC(C)=O)[C@H]([C@@H](O)[C@@H](O)CO)O3)[C@@H](O)[C@H](O[C@H]3[C@H](O)[C@@H](O)[C@@H](F)O[C@@H]3CO)O[C@@H]2CO)O[C@H](CO)[C@H](O)[C@@H]1O[C@@H]1O[C@H](CO)[C@H](O)[C@H](O)[C@H]1O; assay: as §3
[7] = substrate: CCCCCCCCCCCCC/C=C/[C@@H](O)[C@@H](N)CO; assay: (§4) Ratio of Kcat to Km of Activity of Rhodococcus sp. M777 Endoglycoceramidase 2 A81E mutant
[8] = substrate: CC(=O)N[C@H]1[C@H](O[C@@H]2[C@H](O[C@]3(C(=O)O)C[C@H](O)[C@@H](NC(C)=O)[C@H]([C@@H](O)[C@@H](O)CO)O3)[C@@H](O)[C@H](O[C@H]3[C@H](O)[C@@H](O)[C@@H](F)O[C@@H]3CO)O[C@@H]2CO)O[C@H](CO)[C@H](O)[C@@H]1O[C@@H]1O[C@H](CO)[C@H](O)[C@H](O)[C@H]1O; assay: as §4
[9] = substrate: CCCCCCCCCCCCCC[C@@H](O)[C@@H](O)[C@@H](N)CO; assay: Ratio of Kcat to Km of Activity of Rhodococcus sp. M777 Endoglycoceramidase 2 K129N mutant
[10] = substrate: CCCCCCCCCCCCC/C=C/[C@@H](O)[C@@H](N)CO; assay: (§5) Activity of Rhodococcus sp. M777 Endoglycoceramidase 2 I276F mutant
[11] = substrate: CC(=O)N[C@H]1[C@H](O[C@@H]2[C@H](O[C@]3(C(=O)O)C[C@H](O)[C@@H](NC(C)=O)[C@H]([C@@H](O)[C@@H](O)CO)O3)[C@@H](O)[C@H](O[C@H]3[C@H](O)[C@@H](O)[C@@H](F)O[C@@H]3CO)O[C@@H]2CO)O[C@H](CO)[C@H](O)[C@@H]1O[C@@H]1O[C@H](CO)[C@H](O)[C@H](O)[C@H]1O; assay: as §5
[12] = substrate: CCCCCCCCCCCCC/C=C/[C@@H](O)[C@@H](N)CO; assay: (§6) Ratio of Kcat to Km of Activity of Rhodococcus sp. M777 Endoglycoceramidase 2 I276F mutant
[13] = substrate: CC(=O)N[C@H]1[C@H](O[C@@H]2[C@H](O[C@]3(C(=O)O)C[C@H](O)[C@@H](NC(C)=O)[C@H]([C@@H](O)[C@@H](O)CO)O3)[C@@H](O)[C@H](O[C@H]3[C@H](O)[C@@H](O)[C@@H](F)O[C@@H]3CO)O[C@@H]2CO)O[C@H](CO)[C@H](O)[C@@H]1O[C@@H]1O[C@H](CO)[C@H](O)[C@H](O)[C@H]1O; assay: as §6
[14] = substrate: CCCCCCCCCCCCC/C=C/[C@@H](O)[C@@H](N)CO; assay: (§7) Activity of Rhodococcus sp. M777 Endoglycoceramidase 2 A153T mutant
[15] = substrate: CC(=O)N[C@H]1[C@H](O[C@@H]2[C@H](O[C@]3(C(=O)O)C[C@H](O)[C@@H](NC(C)=O)[C@H]([C@@H](O)[C@@H](O)CO)O3)[C@@H](O)[C@H](O[C@H]3[C@H](O)[C@@H](O)[C@@H](F)O[C@@H]3CO)O[C@@H]2CO)O[C@H](CO)[C@H](O)[C@@H]1O[C@@H]1O[C@H](CO)[C@H](O)[C@H](O)[C@H]1O; assay: as §7
[16] = substrate: CCCCCCCCCCCCC/C=C/[C@@H](O)[C@@H](N)CO; assay: (§8) Ratio of Kcat to Km of Activity of Rhodococcus sp. M777 Endoglycoceramidase 2 A153T mutant
[17] = substrate: CC(=O)N[C@H]1[C@H](O[C@@H]2[C@H](O[C@]3(C(=O)O)C[C@H](O)[C@@H](NC(C)=O)[C@H]([C@@H](O)[C@@H](O)CO)O3)[C@@H](O)[C@H](O[C@H]3[C@H](O)[C@@H](O)[C@@H](F)O[C@@H]3CO)O[C@@H]2CO)O[C@H](CO)[C@H](O)[C@@H]1O[C@@H]1O[C@H](CO)[C@H](O)[C@H](O)[C@H]1O; assay: as §8

B1: Endoglycoceramidase II (Rhodococcus sp), A0ACD6B832 R177H (protein)
chain: MRRTRLVSLIVTGSLVFGGGVAAAQSSLAASGSGSGSGTALTPSYLKDDDGRSLILRGFNTASSAKSAPDGMPQFTEADLAREYADMGTNFVRFLISWRSVEPAPGVYDQQYLDRVEDRVGWYAERGYKVMLDMHQDVYSGAITPEGNSGNGAGAIGNGAPAWATYMDGLPVEPQPHWELYYIQPGVMRAFDNFWNTTGKHPELVEHYAKAWRAVADRFADNDAVVAYDLMNEPFGGSLQGPAFEAGPLAAMYQRTTDAIRQVDQDTWVCVAPQAIGVNQGLPSGLTKIDDPRAGQQRIAYCPHLYPLPLDIGDGHEGLARTLTDVTIDAWRANTAHTARVLGDVPIILGEFGLDTTLPGARDYIERVYGTAREMGAGVSYWSSDPGPWGPYLPDGTQTLLVDTLNKPYPRAVAGTPTEWSSTSDRLQLTIEPDAAITAPTEIYLPEAGFPGDVHVEGADVVGWDRQSRLLTVRTPADSGNVTVTVTPAA
B1 gave a Km [1] of 170 µM, a kcat [1] of 0.06 s⁻¹ and a Km [2] of 320 µM. The kcat [2] was 0.06 s⁻¹, the kcat/Km [3] was 353 M⁻¹ s⁻¹ and the kcat/Km [4] was 188 M⁻¹ s⁻¹.

B2: Endoglycoceramidase II (Rhodococcus sp), A0ACD6B832 A81E (protein)
chain: MRRTRLVSLIVTGSLVFGGGVAAAQSSLAASGSGSGSGTALTPSYLKDDDGRSLILRGFNTASSAKSAPDGMPQFTEADLEREYADMGTNFVRFLISWRSVEPAPGVYDQQYLDRVEDRVGWYAERGYKVMLDMHQDVYSGAITPEGNSGNGAGAIGNGAPAWATYMDGLPVEPQPRWELYYIQPGVMRAFDNFWNTTGKHPELVEHYAKAWRAVADRFADNDAVVAYDLMNEPFGGSLQGPAFEAGPLAAMYQRTTDAIRQVDQDTWVCVAPQAIGVNQGLPSGLTKIDDPRAGQQRIAYCPHLYPLPLDIGDGHEGLARTLTDVTIDAWRANTAHTARVLGDVPIILGEFGLDTTLPGARDYIERVYGTAREMGAGVSYWSSDPGPWGPYLPDGTQTLLVDTLNKPYPRAVAGTPTEWSSTSDRLQLTIEPDAAITAPTEIYLPEAGFPGDVHVEGADVVGWDRQSRLLTVRTPADSGNVTVTVTPAA
B2 showed a Km [5] of 200 µM, a kcat [5] of 0.12 s⁻¹ and a Km [6] of 970 µM. For the same protein, the kcat [6] was 0.12 s⁻¹, the kcat/Km [7] was 600 M⁻¹ s⁻¹ and the kcat/Km [8] was 123 M⁻¹ s⁻¹.

B3: Endoglycoceramidase II (Rhodococcus sp), A0ACD6B832 K129N (protein)
chain: MRRTRLVSLIVTGSLVFGGGVAAAQSSLAASGSGSGSGTALTPSYLKDDDGRSLILRGFNTASSAKSAPDGMPQFTEADLAREYADMGTNFVRFLISWRSVEPAPGVYDQQYLDRVEDRVGWYAERGYNVMLDMHQDVYSGAITPEGNSGNGAGAIGNGAPAWATYMDGLPVEPQPRWELYYIQPGVMRAFDNFWNTTGKHPELVEHYAKAWRAVADRFADNDAVVAYDLMNEPFGGSLQGPAFEAGPLAAMYQRTTDAIRQVDQDTWVCVAPQAIGVNQGLPSGLTKIDDPRAGQQRIAYCPHLYPLPLDIGDGHEGLARTLTDVTIDAWRANTAHTARVLGDVPIILGEFGLDTTLPGARDYIERVYGTAREMGAGVSYWSSDPGPWGPYLPDGTQTLLVDTLNKPYPRAVAGTPTEWSSTSDRLQLTIEPDAAITAPTEIYLPEAGFPGDVHVEGADVVGWDRQSRLLTVRTPADSGNVTVTVTPAA
Protein B3 has a kcat/Km [9] of 3.1 M⁻¹ s⁻¹.

B4: Endoglycoceramidase II (Rhodococcus sp), A0ACD6B832 I276F (protein)
chain: MRRTRLVSLIVTGSLVFGGGVAAAQSSLAASGSGSGSGTALTPSYLKDDDGRSLILRGFNTASSAKSAPDGMPQFTEADLAREYADMGTNFVRFLISWRSVEPAPGVYDQQYLDRVEDRVGWYAERGYKVMLDMHQDVYSGAITPEGNSGNGAGAIGNGAPAWATYMDGLPVEPQPRWELYYIQPGVMRAFDNFWNTTGKHPELVEHYAKAWRAVADRFADNDAVVAYDLMNEPFGGSLQGPAFEAGPLAAMYQRTTDAIRQVDQDTWVCVAPQAFGVNQGLPSGLTKIDDPRAGQQRIAYCPHLYPLPLDIGDGHEGLARTLTDVTIDAWRANTAHTARVLGDVPIILGEFGLDTTLPGARDYIERVYGTAREMGAGVSYWSSDPGPWGPYLPDGTQTLLVDTLNKPYPRAVAGTPTEWSSTSDRLQLTIEPDAAITAPTEIYLPEAGFPGDVHVEGADVVGWDRQSRLLTVRTPADSGNVTVTVTPAA
With B4 the Km [10] was 130 µM, the kcat [10] was 0.11 s⁻¹ and the Km [11] was 1300 µM. It also gave a kcat [11] of 0.11 s⁻¹, a kcat/Km [12] of 846 M⁻¹ s⁻¹ and a kcat/Km [13] of 86 M⁻¹ s⁻¹.

B5: Endoglycoceramidase II (Rhodococcus sp), A0ACD6B832 A153T (protein)
chain: MRRTRLVSLIVTGSLVFGGGVAAAQSSLAASGSGSGSGTALTPSYLKDDDGRSLILRGFNTASSAKSAPDGMPQFTEADLAREYADMGTNFVRFLISWRSVEPAPGVYDQQYLDRVEDRVGWYAERGYKVMLDMHQDVYSGAITPEGNSGNGTGAIGNGAPAWATYMDGLPVEPQPRWELYYIQPGVMRAFDNFWNTTGKHPELVEHYAKAWRAVADRFADNDAVVAYDLMNEPFGGSLQGPAFEAGPLAAMYQRTTDAIRQVDQDTWVCVAPQAIGVNQGLPSGLTKIDDPRAGQQRIAYCPHLYPLPLDIGDGHEGLARTLTDVTIDAWRANTAHTARVLGDVPIILGEFGLDTTLPGARDYIERVYGTAREMGAGVSYWSSDPGPWGPYLPDGTQTLLVDTLNKPYPRAVAGTPTEWSSTSDRLQLTIEPDAAITAPTEIYLPEAGFPGDVHVEGADVVGWDRQSRLLTVRTPADSGNVTVTVTPAA
B5 showed a Km [14] of 460 µM, a kcat [14] of 0.2 s⁻¹ and a Km [15] of 420 µM. For the same protein, the kcat [15] was 0.17 s⁻¹, the kcat/Km [16] was 435 M⁻¹ s⁻¹ and the kcat/Km [17] was 405 M⁻¹ s⁻¹.
